“Also recorded” adds a separate entry of the source.

For data set [1], the target named is His-tagged YfcD (putative Nudix hydrolase) expressed from pCA24N(-GFP) (E. coli). Nature of the data set: ITC. In general terms: Isothermal titration calorimetry measures the heat released or taken up as one component is titrated into another.
The target in data set [2] is His-tagged pantothenate synthetase with a C-terminal extension (PS-[LCGR]), expressed from pCA24N(-GFP) (E. coli). The data set is described as follows: ITC.
Data set [3] concerns the target His-tagged YfcD (putative Nudix hydrolase) expressed from pCA24N(-GFP). Nature of the data set: fluorescence polarisation. Background: In fluorescence polarisation assays a small probe gives low polarisation when free and higher when bound to something large.

In data set [1], “His-tagged pantothenate synthetase expressed from pET28a (from UniProt P31663 1-283) (enzyme)” came in with a Kd of 2.11 µM.
Turning to “His-tagged YfcD (putative Nudix hydrolase) expressed from pCA24N(-GFP) (natural protein)”, the Kd in data set [2] turned out to be 30 µM.

B1: FITC-labelled His-tagged pantothenate synthetase (pET28a), labelled by sortase on the N-terminal glycine (protein)
chain: MLIIETLPLLRQQIRRLRMEGKRVALVPTMGNLHDGHMKLVDEAKARADVVVVSIFVNPMQFDRPEDLARYPRTLQEDCEKLNKRKVDLVFAPSVKEIYPNGTETHTYVDVPGLSTMLEGASRPGHFRGVSTIVSKLFNLVQPDIACFGEKDFQQLALIRKMVADMGFDIEIVGVPIMRAKDGLALSSRNGYLTAEQRKIAPGLYKVLSSIADKLQAGERDLDEIITIAGQELNEKGFRADDIQIRDADTLLEVSETSKRAVILVAAWLGDARLIDNKMVELA
Regarding B1, the K0.5 result in data set [3] is reported as “K0.5 = 1.87 ± 0.08 μM; also recorded: K0.5 2.16 ± 0.11 μM”.

As a reminder, the Kd is a measure of binding affinity in units of concentration. Low values mean a tighter complex, high ones a looser complex.

(Values after publication PMC5963676.)
